# According to US20080292639A1 (Amgen, published 2008):
# Positions count from the first letter of the chain named. Names and notes keep the numbering of the source. Values joined by “and” are separate entries in the source; they are usually repeats but may differ in a detail not shown here. Equal values may be shown once.
# B1: 2.1 chimera (murine/human chimeric form of antibody 2.1) (antibody, V domains shown)
# VH: QVTLKESGPGILKPSQTLSLTCSFSGFSLRTSGMGVGWIRQPSGKGLEWLAHIWWDDDKSYNPSLKSQLTISKDTSRNQVFLKITSVDTADTATYYCARRNYYYDDYFAYWGQGTTLTVSS
# VL: DVLMTQTPLSLPVSLGDQASISCRSSQSIVHSNGNTYLEWYLQKPGQSPKLLIYKVSNRFSGVPDRFSGSGSGTDFTLKISRVEAEDLGVYYCFQGSHVPLTFGAGTKLELK
# notes: also called chimera 2.1; (CHO) 2.1 Chimera (control)
# B2: 2.1 A (antibody, human IgG1, kappa)
# heavy: not shown
# light: DVLMTQSPLSLPVTLGQPASISCRSSQSIVHSNGNTYLEWYLQRPGQSPKLLIYKVSNRFSGVPDRFSGSGSGTDFTLKISRVEAEDVGVYYCFQGSHVPLTFGAGTKLEIKRTVAAPSVFIFPPSDEQLKSGTASVVCLLNNFYPREAKVQWKVDNALQSGNSQESVTEQDSKDSTYSLSSTLTLSKADYEKHKVYACEVTHQGLSSPVTKSFNRGEC
# notes: Humanized IgG
# B3: 2.1 D (antibody, human IgG1, kappa)
# heavy: not shown
# light: B2 light with L3V, K50Q, A105G, L109V
# notes: Humanized IgG; also called 2.1 D (K5R)
# B4: 2.1 G K5 (antibody, human IgG1, kappa)
# heavy: not shown
# light: B2 light with V2I, L3V, L15P, Q17E, R44K, K50R, A105G, L109V
# notes: Humanized IgG
# B5: 2.1 G (also described as 2.1 GK5R) (antibody, human IgG1, kappa)
# heavy: not shown
# light: B2 light with V2I, L3V, L15P, Q17E, R44K, K50R, A105G, L109V
# notes: Humanized IgG
# B6: 2.1 E (antibody, human IgG1, kappa)
# heavy: not shown
# light: B2 light with L3V, R44K, K50R, A105G, L109V
# notes: Humanized IgG; also called 2.1 E (K5R); 2.1E.K5R
# B7: 2.1 F (antibody, human IgG1, kappa)
# heavy: not shown
# light: B2 light with V2I, L3V, L15P, Q17E, K50Q, A105G, L109V
# notes: Humanized IgG; also called 2.1 F (K5R)
# B8: 2.1 I (also described as 2.1 I K5R) (antibody, human IgG1, kappa, V domains shown)
# VH: QVTLRESGPALVKPTQTLTLTCTFSGFSLRTSGMGVGWIRQPPGKALEWLAHIWWDDDKSYNPSLKSQLTISKDTSKNQVVLTMTNMDPVDTATYYCARRNYYYDDYFAYWGQGTLVTVSS
# VL: DIVMTQSPLSLPVTPGEPASISCRSSQSIVHSNGNTYLEWYLQKPGQSPQLLIYKVSNRFSGVPDRFSGSGSGTDFTLKISRVEAEDVGVYYCFQGSHVPLTFGGGTKVEIKR
# notes: Humanized IgG
# B9: 2.1 L (antibody, human IgG1, kappa)
# heavy: not shown
# light: B2 light
# notes: Humanized IgG
# B10: 2.1 B (antibody, human IgG1, kappa, V domains shown)
# VH: B8 VH
# VL: B8 VL with I2V, P15L, E17Q, Y41F, L42V, K44R, Q50R, L51V, V109L
# notes: Humanized IgG; also called 2.1 B (K5R)
# B11: 2.1 E K5 (antibody)
# heavy: not shown
# light: B2 light with L3V, R44K, K50R, A105G, L109V
# notes: Humanized IgG
# B12: 2.1 C (antibody, human IgG1, kappa)
# heavy: not shown
# light: B2 light with L3V, K50Q, A105Q
# notes: Humanized IgG; also called 2.1 C (K5R)
# B13: 2.1 K (antibody, human IgG1, kappa, V domains shown)
# VH: B8 VH with R5K, A46G, L116T, V117L
# VL: B8 VL with I2V, V3L, P15L, E17Q, K44R, Q50K, G105A, V109L
# B14: 2.1 J (antibody, human IgG1, kappa, V domains shown)
# VH: B8 VH with R5K
# VL: B8 VL with I2V, P15L, E17Q, Y41F, L42Q, K44R, Q50R, L51R, G105Q, V109L
# Target: T1, human Aβ40 fibrils (human, UniProt P05067 672-711)
# T1 construct: domain: Aβ40; Aggregated (fibrillar) form; also called Fibrillar Aβ40; Aβ40 aggregate
# Assay: ELISA on plate-dried fibrils, time-resolved europium fluorescence
# Procedure: (§1) The fibrils (Aβ or collagen) were diluted to 10 μg/ml in water and mixed thoroughly. The solution was aliquoted into the wells of a microtiter plate (Immulon-2; VWR; Cat # 62404-972) at 50 μl per well (resulting in 0.5 μg fibrils/well final). The plate was dried overnight by being placed uncovered in a 37° C. incubator.
# (§2) The wells were blocked with 200 μl of blocking solution and incubated for ≧1 hour at room temperature (RT) with shaking. The blocking solution was flicked out and gently dried on a paper towel. 100 μl of primary antibody diluted in PBS containing 10% blocking solution was added to each well and the plate was incubated at RT for 1 hour with shaking. The plate was washed with 5-10× in TBS, pH 7.5+0.05% Tween 20. 100 μl of secondary antibodies (each diluted 1-2,000-fold in PBS) was added to each well and the plate was incubate at RT for 1 hour with shaking. The plate was washed with 5-10× in TBS, pH 7.5+0.05% Tween 20. 100 μl Streptavidin-Europium reagent (1-1,000-fold dilution) was added and the plated was incubated at RT for 45 minutes with shaking. The plate was washed 5-10× in TBS, pH 7.5+0.05% Tween 20. 120 μl Enhance Solution was added and the plate was incubated at RT for 15-30 minutes with shaking. The plate was read on a Victor TRF plate reader (Europium program).
# T1 sequence (P05067 672-711 limits assumed): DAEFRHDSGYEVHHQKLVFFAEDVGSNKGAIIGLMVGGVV
row,EC50,Binder
1,0.06 nM,B1
2,0.065 nM,B2

# Target: T2, human Aβ42 fibrils (human, UniProt P05067 672-713)
# T2 construct: domain: Aβ42; Aggregated (fibrillar) form; also called Fibrillar Aβ42; Aβ42 aggregate
# Assay: as above
# Procedure: as §1, §2
# T2 sequence (P05067 672-713 limits assumed): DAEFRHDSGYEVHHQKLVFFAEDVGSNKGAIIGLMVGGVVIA
row,EC50,Binder
1,0.072 nM,B1
2,0.074 nM,B2

# Target: T3, human Aβ40 monomer (human, UniProt P05067 672-711)
# T3 construct: domain: Aβ40; Monomeric form
# Assay: ELISA on plate-coated monomer, time-resolved europium fluorescence
# Procedure: (§3) The same techniques were used for the coating of the microtiter plate for monomer ELISA. The fibrils Aβ monomer were diluted to 2.5 μg/ml in Coating buffer and mixed thoroughly. The solution was aliquoted into the wells of a microtiter plate [Immulon-2; VWR; Cat.#62404-972] at 100 μl per well. The plate was sealed and incubated overnight at 4° C. The plate was washed 5-10× to remove Aβ coating solution prior to starting the assay.
# as §2
# T3 sequence (P05067 672-711 limits assumed): as the sequence (P05067 672-711 limits assumed) above
row,EC50,Binder
1,0.031 nM,B1
2,0.029 nM,B2

# Target: T4, human Aβ42 monomer (human, UniProt P05067 672-713)
# T4 construct: domain: Aβ42; Monomeric form
# Assay: as above
# Procedure: as §3, §2
# T4 sequence (P05067 672-713 limits assumed): as the sequence (P05067 672-713 limits assumed) above
row,EC50,Binder
1,0.034 nM,B1
2,0.031 nM,B2

# Target: T1, human Aβ40 fibrils
# Assay: BIAcore, antibody injected over immobilized Aβ fibrils
# Procedure: (§4) Preparation of BIacore Chip Surfaces: Immobilization of Proteins to a Biacore sensor chip (CM5) was performed according to manufacturer's instructions. Briefly, carboxyl groups on the sensor chip surfaces were activated by injecting 60 μL of a mixture containing 0.2 M N-ethyl-N′-(dimethylaminopropyl)carbodiimide (EDC) and 0.05 M N-hydroxysuccinimide (NHS). Specific surfaces were obtained by injecting rProtein G (Pierce), goat anti-mouse Fc (Jackson Immuno Research Lab) or Aβ aggregates diluted in 10 mM acetate, pH 4.0 at concentrations between 5 and 20 μg/mL. Excess reactive groups on the surfaces were deactivated by injecting 60 μL of 1 M ethanolamine. Final immobilized levels were about 10000 resonance units (RU) for the Protein G and anti-mouse Fc surfaces, and 400 RU for the Aβ aggregates surfaces. A blank, mock-coupled reference surface was also prepared on the sensor chips for background subtraction.
# (§5) Kinetic analysis of antibodies binding to immobilized Aβ aggregates: Antibodies were diluted in PBS+0.005% P-20+0.1 mg/mL BSA from 100 nM to 0.2 nM. The samples at each concentration were injected over the immobilized Aβ aggregate surfaces, as well as over a blank surface for background subtraction. After a 15-minute dissociation, the surface was regenerated by injecting 8 mM glycine, pH 3.0, and 1 M NaCl for 30 seconds.
# (§6) The kinetic analysis assay as described above was repeated using various humanized versions of anti-Aβ antibodies (2.1 chimera, 2.1 B, 2.1 C, 2.1 D, 2.1 E, 2.1 F, 2.1 G, 2.1 E.K5, 2.1E.K5R, 2.1 G.K5, 2.1 G.K5R, 2.1 I.K5R and 2.1 L).
row,koff,Binder
1,0.00012 s⁻¹ and 5.9e-05 s⁻¹,B1
2,0.00012 s⁻¹,B3
3,< 5e-05 s⁻¹,B4
4,0.00011 s⁻¹ and < 5e-05 s⁻¹,B5
5,0.00011 s⁻¹ and < 5e-05 s⁻¹,B6
6,0.00015 s⁻¹,B7
7,< 5e-05 s⁻¹,B2
8,< 5e-05 s⁻¹,B8
9,< 5e-05 s⁻¹,B9
10,0.00024 s⁻¹,B10
11,< 5e-05 s⁻¹,B11
12,0.00015 s⁻¹,B12

# Target: T2, human Aβ42 fibrils
# Assay: as above
# Procedure: as §4, §5, §6
row,koff,Binder
1,6.9e-05 s⁻¹ and 6.3e-05 s⁻¹,B1
2,5.5e-05 s⁻¹,B3
3,< 5e-05 s⁻¹,B4
4,< 5e-05 s⁻¹,B5
5,< 5e-05 s⁻¹,B6
6,0.00012 s⁻¹,B7
7,< 5e-05 s⁻¹,B2
8,< 5e-05 s⁻¹,B8
9,< 5e-05 s⁻¹,B9
10,0.00019 s⁻¹,B10
11,< 5e-05 s⁻¹,B11
12,< 5e-05 s⁻¹,B12

# Target: T3, human Aβ40 monomer
# Assay: BIAcore, antibody captured on protein G or anti-mouse Fc, Aβ monomer injected
# Procedure: as §4
# (§7) Kinetic analysis of Aβ monomers binding to protein G captured antibodies: The kinetic analysis of the interaction between Aβ monomers and antibodies was performed as follows: 2.1A and mAb 2.1 were diluted in PBS+0.005% P-20+0.1 mg/mL BSA and injected over the immobilized protein G or anti-mouse Fc surfaces. Aβ monomers were diluted in PBS+0.005% P-20+0.1 mg/mL BSA from 1000 nM to 2 nM, and each concentration was injected over the captured antibody surfaces. After 3 minutes dissociation, each surface was regenerated by injection of 10 mM glycine, pH 1.5.
Kd,koff,kon,Binder
68 nM,0.0094 s⁻¹,140000 M⁻¹ s⁻¹,B2

# Target: T4, human Aβ42 monomer
# Assay: as above
# Procedure: as §4, §7
Kd,koff,kon,Binder
50 nM,0.0049 s⁻¹,98000 M⁻¹ s⁻¹,B2

# Target: T1, human Aβ40 fibrils
# Assay: BIAcore, antibody injected over immobilized Aβ aggregates
# Procedure: as §4, §5
row,koff,Binder
1,< 5e-05 s⁻¹,B2

# Target: T2, human Aβ42 fibrils
# Assay: as above
# Procedure: as §4, §5
row,koff,Binder
1,< 5e-05 s⁻¹,B2

# Target: native amyloid plaques in unfixed brain sections of Tg2576 APP transgenic mice (human, UniProt P05067 672-713, limits assumed)
# Assay: cell-based or functional assay
# native amyloid plaques in unfixed brain sections of Tg2576 APP transgenic mice, sequence (P05067 672-713 limits assumed): as above
"EC50 (µg/ml), ex vivo phagocytosis","EC50 (µg/ml), ex vivo phagocytosis; 2.1 Chimera (293)","EC50 (µg/ml), ex vivo phagocytosis; 2.1 Chimera (CHO)",Binder
0.8 µg/mL,1.08 µg/mL,0.7 µg/mL,B1
1.78 µg/mL,,,B4
0.94 µg/mL,,,B5
2.23 µg/mL,,,B6
0.83 µg/mL,,,B2
0.84 µg/mL,,,B13
0.69 µg/mL,,,B8
0.82 µg/mL and 0.73 µg/mL,,,B9
1.22 µg/mL,,,B14
3.94 µg/mL,,,B11

# Target: amyloid plaques in unfixed brain sections of a human AD patient (human, UniProt P05067 672-713)
# Assay: cell-based or functional assay
# amyloid plaques in unfixed brain sections of a human AD patient, sequence (P05067 672-713): as the sequence (P05067 672-713 limits assumed) above
row,EC50 of phagocytosis by IC-21 cells on human AD brain sections,Binder
1,0.72 µg/mL,B2
2,0.76 µg/mL,B13
